Results on one molecule are retold here after article doi:10.1101/2019.12.17.878660 (bioRxiv, 2019).

The assay concerns the target T1, SurA (E. coli, UniProt P0ABZ6 21-428).
T1 sequence: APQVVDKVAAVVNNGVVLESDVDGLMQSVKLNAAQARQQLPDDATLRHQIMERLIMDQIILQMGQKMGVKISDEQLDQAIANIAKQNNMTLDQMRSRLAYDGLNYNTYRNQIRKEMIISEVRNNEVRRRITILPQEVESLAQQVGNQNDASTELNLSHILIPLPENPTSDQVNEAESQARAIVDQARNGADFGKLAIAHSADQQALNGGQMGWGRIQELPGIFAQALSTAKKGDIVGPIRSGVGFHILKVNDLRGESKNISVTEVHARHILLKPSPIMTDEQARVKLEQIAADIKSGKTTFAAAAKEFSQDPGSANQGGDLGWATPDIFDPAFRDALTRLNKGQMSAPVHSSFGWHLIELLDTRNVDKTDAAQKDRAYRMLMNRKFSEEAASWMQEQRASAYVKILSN
Nature of the assay: cross-linking.

B1: uOmpX (natural protein, E. coli, UniProt P0A917 24-171, looked up)
chain: ATSTVTGGYAQSDAQGQMNKMGGFNLKYRYEEDNSPLGVIGSFTYTEKSRTASSGDYNKNQYYGITAGPAYRINDWASIYGVVGVGYGKFQTTEYPTYKHDTSDYGFSYGAGLQFNPMENVALDFSYEQSRIRSVDVGTWIAGVGYRF
Take B1: the binding result is “binds”.
